Results from patent US20220332848A1 (NANJING GENSCRIPT BIOTECH, published 2022).

T1: human CTLA-4 (human, UniProt P16410 36-223)
T1 construct: whole, on cells; also called CTLA-4 antigen; cytotoxic T lymphocyte-associated antigen 4
T1 sequence (looked up): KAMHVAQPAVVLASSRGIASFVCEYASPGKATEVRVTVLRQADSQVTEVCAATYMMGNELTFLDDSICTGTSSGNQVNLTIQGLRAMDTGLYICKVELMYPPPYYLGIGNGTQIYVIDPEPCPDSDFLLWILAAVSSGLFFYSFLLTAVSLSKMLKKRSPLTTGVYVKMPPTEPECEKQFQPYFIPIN

B1: bispecific antibody CTLA4-E-HN (bispecific antibody, human IgG4 S228P, kappa)
heavy: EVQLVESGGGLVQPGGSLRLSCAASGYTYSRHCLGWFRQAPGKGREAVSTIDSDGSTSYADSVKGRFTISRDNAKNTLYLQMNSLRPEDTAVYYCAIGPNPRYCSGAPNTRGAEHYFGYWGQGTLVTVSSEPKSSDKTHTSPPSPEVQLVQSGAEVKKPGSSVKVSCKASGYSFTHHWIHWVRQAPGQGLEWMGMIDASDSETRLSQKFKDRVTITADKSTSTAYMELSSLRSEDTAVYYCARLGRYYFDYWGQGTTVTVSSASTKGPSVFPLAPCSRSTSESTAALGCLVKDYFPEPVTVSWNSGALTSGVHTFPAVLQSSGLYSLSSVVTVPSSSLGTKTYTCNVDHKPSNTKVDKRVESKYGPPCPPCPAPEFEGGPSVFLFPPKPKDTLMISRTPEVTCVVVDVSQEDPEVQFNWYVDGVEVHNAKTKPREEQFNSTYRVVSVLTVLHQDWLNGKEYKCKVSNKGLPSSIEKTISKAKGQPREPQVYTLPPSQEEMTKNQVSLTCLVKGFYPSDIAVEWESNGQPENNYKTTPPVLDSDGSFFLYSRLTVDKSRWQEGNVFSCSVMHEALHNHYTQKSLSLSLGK
light: EIVLTQSPATLSLSPGERATLSCRASENVGTYISWYQQKPGQAPRLLIYGASNRYTGIPARFSGSGSGTDFTLTISSLEPEDFAVYYCGESYGHLYTFGGGTKVEIKRTVAAPSVFIFPPSDEQLKSGTASVVCLLNNFYPREAKVQWKVDNALQSGNSQESVTEQDSKDSTYSLSSTLTLSKADYEKHKVYACEVTHQGLSSPVTKSFNRGEC
notes: also called H2 + L0
B2: bispecific antibody CTLA4-G15-HN (bispecific antibody, human IgG4 S228P, kappa)
heavy: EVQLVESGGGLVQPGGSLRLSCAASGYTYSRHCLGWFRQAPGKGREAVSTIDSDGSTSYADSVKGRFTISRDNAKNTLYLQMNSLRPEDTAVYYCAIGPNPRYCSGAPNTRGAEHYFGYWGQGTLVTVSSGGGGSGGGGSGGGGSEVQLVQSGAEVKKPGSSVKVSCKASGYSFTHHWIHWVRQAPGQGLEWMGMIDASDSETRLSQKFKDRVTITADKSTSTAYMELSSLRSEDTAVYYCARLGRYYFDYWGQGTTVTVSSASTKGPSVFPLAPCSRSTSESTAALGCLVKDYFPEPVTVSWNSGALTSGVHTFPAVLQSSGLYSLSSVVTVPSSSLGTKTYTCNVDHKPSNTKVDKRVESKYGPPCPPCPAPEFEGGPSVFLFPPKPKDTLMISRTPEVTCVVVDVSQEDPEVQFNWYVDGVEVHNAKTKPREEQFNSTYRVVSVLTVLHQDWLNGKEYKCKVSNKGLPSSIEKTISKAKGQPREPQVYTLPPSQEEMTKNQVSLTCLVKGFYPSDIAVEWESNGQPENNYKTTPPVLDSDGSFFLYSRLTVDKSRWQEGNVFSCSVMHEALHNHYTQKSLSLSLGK
light: EIVLTQSPATLSLSPGERATLSCRASENVGTYISWYQQKPGQAPRLLIYGASNRYTGIPARFSGSGSGTDFTLTISSLEPEDFAVYYCGESYGHLYTFGGGTKVEIKRTVAAPSVFIFPPSDEQLKSGTASVVCLLNNFYPREAKVQWKVDNALQSGNSQESVTEQDSKDSTYSLSSTLTLSKADYEKHKVYACEVTHQGLSSPVTKSFNRGEC
notes: also called H4 + L0
B3: bispecific antibody CTLA4-G15-LN (bispecific antibody, human IgG4 S228P, kappa)
light: EVQLVESGGGLVQPGGSLRLSCAASGYTYSRHCLGWFRQAPGKGREAVSTIDSDGSTSYADSVKGRFTISRDNAKNTLYLQMNSLRPEDTAVYYCAIGPNPRYCSGAPNTRGAEHYFGYWGQGTLVTVSSGGGGSGGGGSGGGGSEIVLTQSPATLSLSPGERATLSCRASENVGTYISWYQQKPGQAPRLLIYGASNRYTGIPARFSGSGSGTDFTLTISSLEPEDFAVYYCGESYGHLYTFGGGTKVEIKRTVAAPSVFIFPPSDEQLKSGTASVVCLLNNFYPREAKVQWKVDNALQSGNSQESVTEQDSKDSTYSLSSTLTLSKADYEKHKVYACEVTHQGLSSPVTKSFNRGEC
heavy: not shown
notes: also called L1 + H0
B4: bispecific antibody CTLA4-G9-LN (bispecific antibody, human IgG4 S228P, kappa)
light: EVQLVESGGGLVQPGGSLRLSCAASGYTYSRHCLGWFRQAPGKGREAVSTIDSDGSTSYADSVKGRFTISRDNAKNTLYLQMNSLRPEDTAVYYCAIGPNPRYCSGAPNTRGAEHYFGYWGQGTLVTVSSGGGGSGGGSEIVLTQSPATLSLSPGERATLSCRASENVGTYISWYQQKPGQAPRLLIYGASNRYTGIPARFSGSGSGTDFTLTISSLEPEDFAVYYCGESYGHLYTFGGGTKVEIKRTVAAPSVFIFPPSDEQLKSGTASVVCLLNNFYPREAKVQWKVDNALQSGNSQESVTEQDSKDSTYSLSSTLTLSKADYEKHKVYACEVTHQGLSSPVTKSFNRGEC
heavy: not shown
notes: also called L2 + H0
B5: bispecific antibody CTLA4-E-HC (bispecific antibody, human IgG4 S228P, kappa)
heavy: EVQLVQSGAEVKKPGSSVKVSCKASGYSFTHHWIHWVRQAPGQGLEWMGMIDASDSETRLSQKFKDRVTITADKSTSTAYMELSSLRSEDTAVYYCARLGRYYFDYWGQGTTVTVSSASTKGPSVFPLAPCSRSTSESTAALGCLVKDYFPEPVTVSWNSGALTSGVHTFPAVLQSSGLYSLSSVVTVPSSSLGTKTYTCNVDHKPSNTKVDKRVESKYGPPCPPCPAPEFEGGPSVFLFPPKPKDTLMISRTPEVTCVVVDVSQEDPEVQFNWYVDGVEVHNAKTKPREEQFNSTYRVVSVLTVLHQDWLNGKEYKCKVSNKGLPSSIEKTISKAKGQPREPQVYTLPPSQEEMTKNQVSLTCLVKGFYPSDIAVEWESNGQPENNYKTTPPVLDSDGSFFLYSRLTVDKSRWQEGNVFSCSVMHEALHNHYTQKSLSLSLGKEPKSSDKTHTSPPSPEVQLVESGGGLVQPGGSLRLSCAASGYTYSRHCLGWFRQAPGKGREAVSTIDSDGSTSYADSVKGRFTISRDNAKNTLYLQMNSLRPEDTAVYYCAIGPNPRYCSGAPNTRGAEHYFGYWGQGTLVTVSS
light: EIVLTQSPATLSLSPGERATLSCRASENVGTYISWYQQKPGQAPRLLIYGASNRYTGIPARFSGSGSGTDFTLTISSLEPEDFAVYYCGESYGHLYTFGGGTKVEIKRTVAAPSVFIFPPSDEQLKSGTASVVCLLNNFYPREAKVQWKVDNALQSGNSQESVTEQDSKDSTYSLSSTLTLSKADYEKHKVYACEVTHQGLSSPVTKSFNRGEC
notes: also called H1 + L0
B6: bispecific antibody CTLA4-G15-HC (bispecific antibody, human IgG4 S228P, kappa)
heavy: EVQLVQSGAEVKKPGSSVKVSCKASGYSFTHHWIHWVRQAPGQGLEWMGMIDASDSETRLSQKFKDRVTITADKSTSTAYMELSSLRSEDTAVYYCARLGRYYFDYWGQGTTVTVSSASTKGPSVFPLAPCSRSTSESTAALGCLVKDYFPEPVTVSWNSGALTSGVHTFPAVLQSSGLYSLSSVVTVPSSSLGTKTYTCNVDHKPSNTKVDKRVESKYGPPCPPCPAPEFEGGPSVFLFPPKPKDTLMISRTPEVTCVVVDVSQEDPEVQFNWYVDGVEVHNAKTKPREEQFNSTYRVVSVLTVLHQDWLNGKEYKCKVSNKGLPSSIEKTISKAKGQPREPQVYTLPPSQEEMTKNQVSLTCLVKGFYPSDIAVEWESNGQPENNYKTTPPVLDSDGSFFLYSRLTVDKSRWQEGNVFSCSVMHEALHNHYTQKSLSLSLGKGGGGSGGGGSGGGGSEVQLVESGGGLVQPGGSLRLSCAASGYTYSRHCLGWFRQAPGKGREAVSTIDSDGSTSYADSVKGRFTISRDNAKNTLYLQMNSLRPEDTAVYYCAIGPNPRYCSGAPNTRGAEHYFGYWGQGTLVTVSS
light: EIVLTQSPATLSLSPGERATLSCRASENVGTYISWYQQKPGQAPRLLIYGASNRYTGIPARFSGSGSGTDFTLTISSLEPEDFAVYYCGESYGHLYTFGGGTKVEIKRTVAAPSVFIFPPSDEQLKSGTASVVCLLNNFYPREAKVQWKVDNALQSGNSQESVTEQDSKDSTYSLSSTLTLSKADYEKHKVYACEVTHQGLSSPVTKSFNRGEC
notes: also called H3 + L0

Target: T1, human CTLA-4
Assay: flow cytometry on CHO-K1 cells expressing CTLA-4
Experimental: For the constructed series of bispecific antibodies, the affinity of these samples with antigens was measured by using a flow cytometer. […] Then, an antibody-antigen binding curve was generated based on the geometric mean, raw data of four parameters was plotted by using the […] Prism V6.02 software, and a best fitted value program was compiled to analyze EC₅₀.

Binding result, binds:
B1
B2
B3
B4
B5
B6
